{"source": "paper PMC10864350", "about": "“Phosphorylation-dependent deubiquitinase OTUD3 regulates YY1 stability and promotes colorectal cancer progression” (Cell Death & Disease, 2024)", "molecules": {"B1": {"name": "GST-OTUD3 recombinant protein (enzyme, human, UniProt Q5T2D3 1-398, looked up)", "chain": "MSRKQAAKSRPGSGSRKAEAERKRDERAARRALAKERRNRPESGGGGGCEEEFVSFANQLQALGLKLREVPGDGNCLFRALGDQLEGHSRNHLKHRQETVDYMIKQREDFEPFVEDDIPFEKHVASLAKPGTFAGNDAIVAFARNHQLNVVIHQLNAPLWQIRGTEKSSVRELHIAYRYGEHYDSVRRINDNSEAPAHLQTDFQMLHQDESNKREKIKTKGMDSEDDLRDEVEDAVQKVCNATGCSDFNLIVQNLEAENYNIESAIIAVLRMNQGKRNNAEENLEPSGRVLKQCGPLWEEGGSGARIFGNQGLNEGRTENNKAQASPSEENKANKNQLAKVTNKQRREQQWMEKKKRQEERHRHKALESRGSHRDNNRSEAEANTQVTLVKTFAALNI", "notes": "OTUD3 cloned into the pGEX-6P-1 vector; also called GST-tagged OTUD3; GST-labeled OTUD3; source: Escherichia coli BL21 (DE3), purified (Glutathione Sepharose 4B beads)"}}, "key": {"YY1": {"molecular_target": "YY1 (UniProt P25490)", "assay": "co-IP", "conditions": "reference: HA-OTUD3 wild type; sites S326"}, "[1]": {"molecular_target": "T1, Flag-tagged YY1 (Yin Yang 1), full length, wild type (UniProt P25490 1-414)", "T1 construct": "Yin Yang 1 (YY1), zinc finger transcription factor, full-length wild type cloned into pCDNA3.1-CMV-Flag-C; The vector name pCDNA3.1-CMV-Flag-C may mean a C-terminal tag; also called Flag-YY1; YY1-WT; source: SW480, transfected, in lysate", "assay": "pull-down; GST or GST-OTUD3 (E. coli) incubated overnight at 4 °C with purified Flag-YY1 or Myc-PLK1 from HEK-293T; Glutathione-Sepharose 4B beads; immunoblot with anti-Flag or anti-Myc", "conditions": "both partners purified"}, "[2]": {"molecular_target": "T2, Myc-tagged PLK1 (wild-type) (UniProt P53350 1-603)", "T2 construct": "Polo-like kinase 1 (PLK1), wild type, cloned into pCDNA3.1-CMV-Myc-C; The vector name pCDNA3.1-CMV-Myc-C may mean a C-terminal tag; also called Myc-PLK1; source: SW480, transfected, in lysate", "assay": "pull-down; GST or GST-OTUD3 (E. coli) incubated overnight at 4 °C with purified Flag-YY1 or Myc-PLK1 from HEK-293T; Glutathione-Sepharose 4B beads; immunoblot with anti-Flag or anti-Myc", "conditions": "both partners purified"}}, "data": [{"molecule": "OTUD3 (from UniProt Q5T2D3) HA-OTUD3 S326A", "values": [{"measurement": "binding against the reference", "setting": "YY1", "result": "weaker"}]}, {"molecule": "B1", "values": [{"measurement": "binding result", "setting": "[1]", "result": "binds"}, {"measurement": "binding result", "setting": "[2]", "result": "binds"}]}]}
